For orientation: EC50 means the concentration at which the effect is half-maximal.

This note sets out measurements from patent US20230303711A1.

The assay addresses Fc-tagged human CD47-ECD protein (CD47-Fc) (human). As to the kind of experiment: ELISA on coated human CD47-Fc; row printed as Affinity (µg/mL). Background: ELISA stands for enzyme-linked immunosorbent assay.

Chain of Fc-tagged human CD47-ECD protein (CD47-Fc) (human) (chain, as listed by the source limits assumed): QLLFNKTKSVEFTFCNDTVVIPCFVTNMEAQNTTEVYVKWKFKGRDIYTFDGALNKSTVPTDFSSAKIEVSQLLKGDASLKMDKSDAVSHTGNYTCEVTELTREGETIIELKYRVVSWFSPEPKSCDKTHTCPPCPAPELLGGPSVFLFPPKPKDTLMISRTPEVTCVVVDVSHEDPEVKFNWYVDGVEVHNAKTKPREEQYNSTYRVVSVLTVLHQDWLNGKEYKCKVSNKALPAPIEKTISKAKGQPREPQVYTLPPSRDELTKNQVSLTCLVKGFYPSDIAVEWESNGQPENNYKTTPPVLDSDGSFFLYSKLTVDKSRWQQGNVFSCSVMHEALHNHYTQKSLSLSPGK

B1: Antibody 17 (antibody, human IgG1, kappa, V domains shown)
VH: QVQLQESGPGLVKPSETLSLTCTVSGGSLDNYYWSWIRQPPGKGLEWIGYIYYSGNTNYNPSLKSRVTISVDTSKNQFSLRLRSVTAADTAVYYCARGGRFLERYWGQGTLVTVSS
VL: DIQMTQSPSSVSASVGDRVTISCRANQAIGTWLAWYQQKPGKAPKLLIYAASTLQSGVPSRFSGSGSGTEFTLTISSLQAEDVAVYYCQQYYTTPLTFGGGTKLEIKR
Molecule B1 gave an EC50 of 0.088 µg/mL.
